Experimental data reported in patent US20250262210A1 (TRUSTEES OF COLUMBIA UNIVERSITY IN THE CITY OF NEW YORK, published 2025).

Legend:
Assay in all cases: IP/MS, LZTR1 R810W-FLAG, U87
[1] = biological target: T1, RANBP6 (human, UniProt O60518 2-1105)
T1 sequence (looked up): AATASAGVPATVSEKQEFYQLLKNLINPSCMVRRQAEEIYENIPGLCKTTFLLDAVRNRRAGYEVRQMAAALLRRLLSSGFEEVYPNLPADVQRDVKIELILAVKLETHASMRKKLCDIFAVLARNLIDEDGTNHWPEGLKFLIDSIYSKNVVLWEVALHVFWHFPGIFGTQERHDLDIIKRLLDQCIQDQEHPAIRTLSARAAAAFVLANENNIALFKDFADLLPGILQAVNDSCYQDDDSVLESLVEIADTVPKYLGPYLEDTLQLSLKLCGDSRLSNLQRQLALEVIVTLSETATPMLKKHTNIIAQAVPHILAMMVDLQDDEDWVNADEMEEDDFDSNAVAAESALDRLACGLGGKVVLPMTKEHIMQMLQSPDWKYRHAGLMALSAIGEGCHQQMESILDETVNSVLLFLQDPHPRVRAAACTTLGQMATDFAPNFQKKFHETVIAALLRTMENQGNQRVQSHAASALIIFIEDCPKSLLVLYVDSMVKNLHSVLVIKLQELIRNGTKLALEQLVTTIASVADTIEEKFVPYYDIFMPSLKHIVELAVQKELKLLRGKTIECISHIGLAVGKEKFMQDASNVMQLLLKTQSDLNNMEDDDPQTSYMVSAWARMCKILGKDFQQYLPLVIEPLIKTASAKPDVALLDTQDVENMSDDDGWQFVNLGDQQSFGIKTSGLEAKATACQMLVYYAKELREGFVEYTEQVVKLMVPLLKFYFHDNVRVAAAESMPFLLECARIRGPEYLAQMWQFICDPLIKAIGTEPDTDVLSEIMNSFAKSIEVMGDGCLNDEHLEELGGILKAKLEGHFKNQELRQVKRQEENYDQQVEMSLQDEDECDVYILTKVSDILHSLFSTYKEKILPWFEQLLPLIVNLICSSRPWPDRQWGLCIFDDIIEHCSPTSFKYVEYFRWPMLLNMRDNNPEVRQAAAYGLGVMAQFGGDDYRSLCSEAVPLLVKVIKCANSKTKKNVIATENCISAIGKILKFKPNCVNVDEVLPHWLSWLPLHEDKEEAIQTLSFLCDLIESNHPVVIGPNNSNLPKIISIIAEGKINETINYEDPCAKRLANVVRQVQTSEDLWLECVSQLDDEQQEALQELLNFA
Outline: (§1)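 Gel slices were reduced with 5 mM DTT, alkylated with 11 mM IAA and digested overnight at 37° C. with trypsin. Peptides were analysed on an Orbitrap Fusion Tribrid by LC-MS/MS.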

[2] = biological target: T2, SREBF2 (human, UniProt Q12772 1-1141, limits assumed)
T2 sequence (looked up): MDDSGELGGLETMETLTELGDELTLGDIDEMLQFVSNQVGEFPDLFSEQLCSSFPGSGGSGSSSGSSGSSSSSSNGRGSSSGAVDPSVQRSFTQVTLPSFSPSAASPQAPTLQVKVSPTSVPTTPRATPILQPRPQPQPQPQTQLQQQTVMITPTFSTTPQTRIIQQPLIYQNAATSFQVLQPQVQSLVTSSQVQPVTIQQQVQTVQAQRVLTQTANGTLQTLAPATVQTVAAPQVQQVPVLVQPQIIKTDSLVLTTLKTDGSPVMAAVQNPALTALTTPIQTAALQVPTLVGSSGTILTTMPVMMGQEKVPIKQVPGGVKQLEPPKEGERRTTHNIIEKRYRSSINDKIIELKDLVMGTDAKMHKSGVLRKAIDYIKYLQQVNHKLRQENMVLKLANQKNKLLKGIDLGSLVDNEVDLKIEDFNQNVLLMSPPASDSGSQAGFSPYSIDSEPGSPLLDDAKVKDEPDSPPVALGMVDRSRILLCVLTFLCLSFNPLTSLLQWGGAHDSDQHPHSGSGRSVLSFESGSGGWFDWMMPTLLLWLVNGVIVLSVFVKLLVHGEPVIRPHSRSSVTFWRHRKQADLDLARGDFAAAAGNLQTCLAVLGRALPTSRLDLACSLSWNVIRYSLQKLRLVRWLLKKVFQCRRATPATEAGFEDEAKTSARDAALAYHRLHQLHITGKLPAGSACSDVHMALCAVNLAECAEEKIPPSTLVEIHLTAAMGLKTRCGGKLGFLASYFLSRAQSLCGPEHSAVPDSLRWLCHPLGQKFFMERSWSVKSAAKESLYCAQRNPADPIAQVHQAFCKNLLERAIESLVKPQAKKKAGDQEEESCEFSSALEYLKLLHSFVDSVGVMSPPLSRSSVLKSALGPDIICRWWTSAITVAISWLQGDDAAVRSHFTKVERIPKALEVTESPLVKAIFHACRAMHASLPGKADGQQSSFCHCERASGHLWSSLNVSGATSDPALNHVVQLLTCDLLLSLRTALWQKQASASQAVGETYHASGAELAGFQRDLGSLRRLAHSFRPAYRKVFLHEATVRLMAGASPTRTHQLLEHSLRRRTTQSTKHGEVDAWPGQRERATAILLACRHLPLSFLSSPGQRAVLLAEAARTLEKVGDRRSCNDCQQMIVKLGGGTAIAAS
Outline: as §1

[3] = biological target: PEAK1 (human, UniProt Q9H792 1-1746)
Outline: as §1

Measured: binding result

PEAK1, sequence (Q9H792 whole entry): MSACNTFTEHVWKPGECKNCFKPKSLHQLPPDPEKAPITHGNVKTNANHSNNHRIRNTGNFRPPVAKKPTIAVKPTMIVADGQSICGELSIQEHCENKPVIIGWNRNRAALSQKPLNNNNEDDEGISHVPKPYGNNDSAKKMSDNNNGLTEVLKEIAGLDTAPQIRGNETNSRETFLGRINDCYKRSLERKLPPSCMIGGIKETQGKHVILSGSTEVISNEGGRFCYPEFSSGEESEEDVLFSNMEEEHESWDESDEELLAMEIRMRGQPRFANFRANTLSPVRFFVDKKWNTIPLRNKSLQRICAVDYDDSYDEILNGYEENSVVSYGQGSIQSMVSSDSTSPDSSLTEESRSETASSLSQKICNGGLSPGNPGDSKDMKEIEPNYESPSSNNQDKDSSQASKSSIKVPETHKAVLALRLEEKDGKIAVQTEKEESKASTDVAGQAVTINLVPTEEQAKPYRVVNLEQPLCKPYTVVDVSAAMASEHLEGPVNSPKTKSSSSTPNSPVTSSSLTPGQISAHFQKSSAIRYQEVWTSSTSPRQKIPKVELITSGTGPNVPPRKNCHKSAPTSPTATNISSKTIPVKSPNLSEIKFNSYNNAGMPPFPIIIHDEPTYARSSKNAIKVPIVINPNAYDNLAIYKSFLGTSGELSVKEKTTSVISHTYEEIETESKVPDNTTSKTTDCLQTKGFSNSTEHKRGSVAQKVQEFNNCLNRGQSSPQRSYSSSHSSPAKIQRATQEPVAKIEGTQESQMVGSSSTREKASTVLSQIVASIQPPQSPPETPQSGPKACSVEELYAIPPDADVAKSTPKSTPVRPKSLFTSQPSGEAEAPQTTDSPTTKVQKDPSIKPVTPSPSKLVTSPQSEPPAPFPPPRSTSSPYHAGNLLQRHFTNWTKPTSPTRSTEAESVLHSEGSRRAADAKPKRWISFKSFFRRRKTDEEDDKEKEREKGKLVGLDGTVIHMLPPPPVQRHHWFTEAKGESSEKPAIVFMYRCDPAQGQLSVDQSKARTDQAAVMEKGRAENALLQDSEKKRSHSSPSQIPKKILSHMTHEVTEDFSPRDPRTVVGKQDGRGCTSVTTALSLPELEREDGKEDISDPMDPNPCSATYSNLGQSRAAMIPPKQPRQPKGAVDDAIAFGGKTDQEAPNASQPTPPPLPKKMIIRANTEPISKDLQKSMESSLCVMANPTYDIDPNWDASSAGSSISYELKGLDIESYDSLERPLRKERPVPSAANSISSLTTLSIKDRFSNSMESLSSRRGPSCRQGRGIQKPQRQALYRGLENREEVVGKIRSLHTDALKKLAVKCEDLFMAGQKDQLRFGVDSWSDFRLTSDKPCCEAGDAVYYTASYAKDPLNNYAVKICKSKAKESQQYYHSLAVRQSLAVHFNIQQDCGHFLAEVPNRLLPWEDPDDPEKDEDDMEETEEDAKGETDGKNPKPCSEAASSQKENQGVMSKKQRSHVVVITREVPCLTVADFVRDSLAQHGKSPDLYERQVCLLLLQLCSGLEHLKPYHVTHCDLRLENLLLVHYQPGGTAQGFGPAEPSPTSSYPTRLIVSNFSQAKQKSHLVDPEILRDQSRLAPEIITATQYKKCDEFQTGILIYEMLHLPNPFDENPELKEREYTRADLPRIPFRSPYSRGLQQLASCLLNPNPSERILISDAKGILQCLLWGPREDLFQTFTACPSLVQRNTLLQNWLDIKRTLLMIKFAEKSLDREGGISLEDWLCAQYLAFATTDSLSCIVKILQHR

B1: LZTR1 R810W-FLAG (other, human, UniProt Q8N653 1-840, looked up)
chain: MAGPGSTGGQIGAAALAGGARSKVAPSVDFDHSCSDSVEYLTLNFGPFETVHRWRRLPPCDEFVGARRSKHTVVAYKDAIYVFGGDNGKTMLNDLLRFDVKDCSWCRAFTTGTPPAPRYHHSAVVYGSSMFVFGGYTGDIYSNSNLKNKNDLFEYKFATGQWTEWKIEGRLPVARSAHGATVYSDKLWIFAGYDGNARLNDMWTIGLQDRELTCWEEVAQSGEIPPSCCNFPVAVCRDKMFVFSGQSGAKITNNLFQFEFKDKTWTRIPTEHLLRGSPPPPQRRYGHTMVAFDRHLYVFGGAADNTLPNELHCYDVDFQTWEVVQPSSDSEVGGAEVPERACASEEVPTLTYEERVGFKKSRDVFGLDFGTTSAKQPTQPASELPSGRLFHAAAVISDAMYIFGGTVDNNIRSGEMYRFQFSCYPKCTLHEDYGRLWESRQFCDVEFVLGEKEECVQGHVAIVTARSRWLRRKITQARERLAQKLEQEAAPVPREAPGVAAGGARPPLLHVAIREAEARPFEVLMQFLYTDKIKYPRKGHVEDVLLIMDVYKLALSFQLCRLEQLCRQYIEASVDLQNVLVVCESAARLQLSQLKEHCLNFVVKESHFNQVIMMKEFERLSSPLIVEIVRRKQQPPPRTPLDQPVDIGTSLIQDMKAYLEGAGAEFCDITLLLDGHPRPAHKAILAARSSYFEAMFRSFMPEDGQVNISIGEMVPSRQAFESMLRYIYYGEVNMPPEDSLYLFAAPYYYGFYNNRLQAYCKQNLEMNVTVQNVLQILEAADKTQALDMKRHCLHIIVHQFTKVSKLPTLWSLSQQLLLDIIDSLASHISDKQCAELGADI
notes: Stably expressed in U87 cells by lentivirus; also called LZTR1-FLAG-R810W; LZTR1 RW; not shown: FLAG tag
binds: all assays above
